Measurements taken from PMC4423232.
pKd: −log10 of the molar value.

How the values were obtained:
[1] = molecular target: optimized version of the ectodomain of human Fcγ receptor I (hFcγRI, CD64), residues Gln16 to Val289, hexa-histidine tag at the C-terminus (human) (UniProt P12314); test: SPR; method #1: Biacore T200, hFcγRI captured by its C-terminal hexa-histidine on a Ni-NTA chip (~550 RU for Fc, ~220 RU for IgG), Fc or IgG1 as analyte, PBS with 0.005% Tween-20, 25 °C, 1:1 Langmuir global fit, KD from the rate constants
[2] = molecular target: optimized version of the ectodomain of human Fcγ receptor I (hFcγRI, CD64), residues Gln16 to Val289, hexa-histidine tag at the C-terminus (human) (UniProt P12314); test: SPR; temperature dependence of KD, van't Hoff approximation; hFcγRI on the surface, Fc or IgG1 as analyte

Substance “Fc fragment of the humanized IgG1 monoclonal antibody rituximab (from UniProt P01857 107-328) (domain or fragment)” has a pKd [1] of 8.38, a koff [1] of 0.00011 s⁻¹ and a kon [1] of 27000 M⁻¹ s⁻¹. For the same substance, the dH (van't Hoff) [2] was -112 kJ/mol.
